The record followed here is patent US20240225985A1, “BRIGHTENING COMPOSITIONS AND METHODS OF USE” (Alastin Skincare, Inc., priority 2021, published 2024).

Series [1] concerns melanocytes. Description: In vitro melanocyte comparative analysis via absorbance readings (melanin production). The settings on record: for Absorbance 405 nm / Absorbance 490 nm / Absorbance 492 nm: 4 days, control = 0.0 row. The series is classed as cell-based. As for the experimental part:
Melanocytes were cultured in 6-well plates containing growth media. Once confluent, 2 concentrations of each of the 10 compounds were added to the cells in triplicate wells for 4 days. There were a total of eleven 6-well plates, one for each compound treatment and one for the vehicle control. Absorbance readings were taken on the lysates prepared for each well of the 6-well plates, normalizing for cells counts. The model was initially tested for accuracy and validated using hexapeptide-12 in view of strong gene expression results with melanocyte cell line in the first study—confirmation of decreased stimulation was obtained. Additional validation was carried out using MSH addition to media to confirm increased stimulation of melanin production. The following compounds used in this study are seen in Table 9.

For series [2], the system named is hTERT-immortalized dermal melanocytes. The series can be described thus: Melanocyte assay, daily inspection of cell morphology. Particulars: both concentrations of Table 11; five-day dosing period. The series is classed as cell-based, human. As to the method: Once the melanocytes were 100% confluent in 6-well plates, the melanocyte growth media was removed and the melanocytes were treated with media containing the above compounds; duplicate wells for each compound/concentration listed above. The duplicate vehicle control wells were fed melanocyte growth media only or melanocyte growth media with DMSO (10 uL per 10 mL melanocyte growth media).
The cells were fed the appropriate media for the next 5 days. Each day, the cells were inspected for morphology.

For series [3], the system named is melanocytes. Description: Gene expression study (RNA sequencing) in PGE2-induced melanocytes. The series is classed as cell-based, human. The settings on record: melanocytes induced with 10 uM PGE2; 24 hours of compound exposure. As for the experimental part: Four cell types associated with pigmentation pathways—melanocytes, keratinocytes, fibroblasts and endothelial (HUVEC) cells—were analyzed for gene expression.
To simulate the UV stimulatory pigmentation pathway process, melanocytes were pre-treated with PGE2, a normal direct consequence of UV light exposure usually emanating from exposed keratinocytes. After the 48 hour attachment culture, these melanocytes were induced with 10 uM PGE2 in melanocyte media for 24 hrs. The four primary human adult dermal cell lines were cultured and plated in well plates in triplicate and then treated with 11 different compound treatments (plus DMSO control). After 48 hours of attachment culture, the remaining fibroblasts, HUVECs and keratinocytes were treated with the test compounds listed in Table 8.
After 24 hours of compound exposure, RNA lysate preparation was carried out and samples were shipped to MedGenome for RNA extraction, library construction and sequencing to 25M paired end 100 bp reads per sample. Library prep and sequencing was completed at MedGenome.

Another series concerns endothelial cells. Description: Gene expression of PMEL, tyrosinase genes, MC1/4R, EDNRB, MITF, ERK1/2, JNK, AKT1. Type of series: cell-based. The settings on record: after treatment of endothelial cells. An excerpt: The methods similar to Examples 3-4 were used to measure expression of PMEL, tyrosinase genes, MC1/4R, EDNRB, MITF, ERK1/2, JNK, and ANKT1.
FIGS. 10A-10D illustrates the expression of PMEL (FIG. 10A), Tyrosinase genes (FIG. 10B), MC1/4R (FIG. 10C), and EDNRB (FIG. 10D) after treatment of endothelial cells with lactoferrin (Lacto), peptide derived from lactoferrin (TCV), hexapeptide-12 (Hex12), tripeptide-1 and hexapeptide-12 (TriHex), hexapeptide-11 (Hex11), tranexamic acid (Tran acid) octapeptide (Octa), phosphatidylserine (phos), Cannabidiol (CBD), and all (total).
MITF is regulated by phosphorylation. Specifically, the MAPK and Akt pathways are known to phosphorylate MITF at certain sites. FIGS. 12A-12C illustrate the expression of ERK1/2 (MAPK3/MAPK1) (FIG. 12A), JNK (FIG. 12B), AKT1 (FIG. 12C) after treatment of endothelial cells with lactoferrin (Lacto), peptide derived from lactoferrin (TCV), hexapeptide-12 (Hex12), tripeptide-1 and hexapeptide-12 (TriHex), hexapeptide-11 (Hex11), octapeptide (Octa), phosphatidylserine (phos), Cannabidiol (CBD), and all (total).

The mark [4] stands for this setting: higher concentration (Lactoferrin 1000, HEX-11 200, Phosphatidylserine 500, Silymarin 20, Sesamol 100, Tranexamic Acid 1000, HEX-12 4.9, ug/mL or ug/uL; Phytoene/Phytofluene 5.00%).
[5] abbreviates: lower concentration (Lactoferrin 500, HEX-11 100, Phosphatidylserine 250, Silymarin 10, Sesamol 50, Tranexamic Acid 500, HEX-12 2.9, ug/mL or ug/uL; Phytoene/Phytofluene 2.50%).

“Also recorded” adds a separate entry of the source.

B1: Lactoferrin: 80 kDa iron binding glycoprotein of the transferrin family (protein)
chain: APRKNVRWCTISQPEWFKCRRWQWRMKKLGAPSITCVRRAFALECIRAIAEKKADAVTLDGGMVFEACRDPYKLRPVAAEIYGTKESPQTHYYAVAVVKKGSNFQLDQLQGRKSCHTGLGRSAGWIIPMGILRPYLSWTESLEPLQGAVAKFFSASCVPCIDRQAYPNLCQLCKGEGENQCACSSREPYFGYSGAFKCLQDGAGDVAFVKETTVFENLPEKADRDQYELLCLNNSRAPVDAFKECHLAQVPSHAVVARSVDGKEDLIWKLLSKAQEKFGKNKSRSFQLFGSPPGQRDLLFKDSALGFLRIPSKVDSALYLGSRYLTTLKNLRETAEEVKARYTRVVWCAVGPEEQKKCQQWSQQSGQNVTCATASTTDDCIVLVLKGEADALNLDGGYIYTAGKCGLVPVLAENRKSSKHSSLDCVLRPTEGYLAVAVVKKANEGLTWNSLKDKKSCHTAVDRTAGWNIPMGLIVNQTGSCAFDEFFSQSCAPGADPKSRLCALCAGDDQGLDKCVPNSKEKYYGYTGAFRCLAEDVGDVAFVKNDTVWENTNGESTADWAKNLNREDFRLLCLDGTRKPVTEAQSCHLAVAPNHAVVSRSDRAAHVKQVLLHQQALFGKNGKNCPDKFCLFKSETKNLLFNDNTECLAKLGGRPTYEEYLGTEYVTAIANLKKCSTSPLLEACAFLTR
In the case of B1, in the series on melanocytes [1] (setting [4]), the “Absorbance 405 nm” value was found to be 0.519, the “Absorbance 490 nm” value is 0.312 and the “Absorbance 492 nm” value came out at 0.226. Moreover, in the series on melanocytes [1] (setting [5]), the “Absorbance 405 nm” value turned out to be 0.509, the “Absorbance 490 nm” value amounted to 0.334 and the “Absorbance 492 nm” value amounted to 0.217. Further, the “Regulation of melanogenesis (decreased absorption denoting decreased melanin formation)” value in the series on melanocytes [1] (melanocytes, summary of Table 10) is recorded as “Regulation of melanogenesis was observed”. Further, in series [2], the “melanocyte morphology / survival on daily inspection” value is on record as “developed a circular morphology rather the normal webbed morphology 24 hour post-initial dosing; also recorded: at 48 hours post-initial dosing, the melanocytes returned to normal morphology”. Also, the “melanogenic gene activity in melanocytes” value in the series with melanocytes [3] is listed as “particularly dominant in melanogenic activity; also recorded: significant effects on melanogenesis activity”. The “melanogenic activity (expression of PMEL, tyrosinase genes, MC1/4R, EDNRB, kinases)” value with endothelial cells was “robust melanogenic activity; also recorded: significant effects on such melanogenic activity”.
